Biological target: mTORΔN-mLST8 mTORΔN (Homo sapiens, UniProt P42345)
Experiment: kinase inhibition assay

B1: PRAS40 114-256 (protein)
chain: not shown
Binder B1 has a Ki of ~52 µM.

Source: publication PMC5750076 (2017)
